Experimental data reported in the nanobody polyreactivity screen of Harvey et al. (2022).

Assay: yeast display, Sf9 membrane polyspecificity reagent, FACS + sequencing; frameworks hold sequencing errors
Summary of the method: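 A nanobody's polyreactivity label depends on the gate it was sorted from. Yeast display cells were stained with 10% biotinylated, detergent-solubilized Sf9 membrane reagent for 1 hour at 4 °C, enriched on streptavidin microbeads and sorted by FACS. The low and high (top ~1%) gates were set on anti-HA fluorescence for expression and streptavidin fluorescence for reagent binding.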

QVQLVESGGGLVQAGGSLRLSCAASGSTFVGYAMGWYRQAPGKERELVADIDSIGGSTYYADSVKGRFTISRDNAKNTVYVQMNSLKPEDTAVYYCAARRFDTALVLYDYWGQGTQVTVSS
polyreactivity (PSR sort gate): low polyreactivity

QVQLVESGGGLVQAGGSLRLSCAASGSTFVGYAMGWYRQAPGKERELVADIDSIGGSTYYADSVKRRFTISRDNAKNTVYLQMNSLKPEDTAVYDCAAYQHPGLRTSYEYWGQGTQVTVSS
polyreactivity (PSR sort gate): low polyreactivity

QVQLVESGGGLVQAGGSLRLSCAASGSTFVGYAMGWYRQAPGKERELVADITSGGGITYYADSVKGRFTISRDNAKNTVYLQMNSLKPEDTAVYYCAVQYYNVLYYQYDYWGQGTQVTVSS
polyreactivity (PSR sort gate): low polyreactivity

QVQLVESGGGLVQAGGSLRLSCAASGSTFVGYAMGWYRQAPGQERELVAGITINGGSTYYADSVKGRFTISRDNAKNTVYLQMNSLKPEDTAVYYCAATGNENYPDPLQSMDYWGQGTQVTVSS
polyreactivity (PSR sort gate): low polyreactivity

QVQLVESGGGLVQAGGSLRLSCAASGSTFVGYAMGWYRQAPGTERDLVAAISSSGSTNYADSVKGRFTISRDNAKNTVYLQMNSLKPEDTAVYYCAALYSYFWLIIDYGYWGQGTQVTVSS
polyreactivity (PSR sort gate): low polyreactivity

QVQLVESGGGLVQAGGSLRLSCAASGSTFVINAMGWYRQAPGKERELVAAISYDGGGTYYADSVKGRFTISRDNAKNTVYLQMNSLKPEDTAVYYCAAENFYPYTYYASDYWGQGTQVTVSS
polyreactivity (PSR sort gate): high polyreactivity

QVQLVESGGGLVQAGGSLRLSCAASGSTFVKNSMGLYRQAPGKERELVAVISWPGSSTYYADSVKGRFTISRDNAKNTDYLQMISLKPEDTAVYYCNAPKIRPGSHTRHYYWGQGTQVTVSS
polyreactivity (PSR sort gate): low polyreactivity

QVQLVESGGGLVQAGGSLRLSCAASGSTFVKYAMGWYRQAPGKERELVAVISSAGSTNYADSVKGRFTISRDNAKNTVYLQMNSLKPEDTAVYYCNAEPTTPYWDYWAYEDDYWGQGTQVTVSS
polyreactivity (PSR sort gate): low polyreactivity

QVQLVESGGGLVQAGGSLRLSCAASGSTFVLYALGWYRQPPGKERELVAVISWSGGSTYYADSVKGRFTISRDKAKNTVYLQMNSLKPEDTADYYCAATGWSSFYYRFDYWGQGTQVTVSS
polyreactivity (PSR sort gate): low polyreactivity

QVQLVESGGGLVQAGGSLRLSCAASGSTFVNNAMGWYRQAPGKERELVAAISWSGGSTYYADSVKGRFTISRDNAKNTVYLQMNSLNPEDTAVYYCAADGNARAAMDYWGQGTQVTVSS
polyreactivity (PSR sort gate): low polyreactivity

QVQLVESGGGLVQAGGSLRLSCAASGSTFVNNAMGWYRQAPGKERELVAAITNGGSTNYADSVKGRFTISRDNAKNTVYLQMNSLKPEDTAVYYCAKYGDPYRHRSGTVEYGYWGQGTQVTVSS
polyreactivity (PSR sort gate): low polyreactivity

QVQLVESGGGLVQAGGSLRLSCAASGSTFVPNAMGGSRPAPGKERELVAAISYSGGTTYYADSVKGRFTISRDNAKNTVYLQMNSLKPEDTAVYYCAARSKGAAAILDDYWGQGTQVTVSS
polyreactivity (PSR sort gate): low polyreactivity

QVQLVESGGGLVQAGGSLRLSCAASGSTFVPNAMGWYRQAPGKEREFVAAIRVSGDNTYYADSVKGRFTISRDNAKNTVYLQMNSLKPEDTGVYYCAATGTVLGSVDYWGQGTQVTVSS
polyreactivity (PSR sort gate): low polyreactivity

QVQLVESGGGLVQAGGSLRLSCAASGSTFVPNAMGWYRQAPGKERELVAAISSVGSTNYADSVKGRFTISRDNAKNTVYLQMNSLKPEDTAVYYCAVRYPWRYFKYGYWGQGTQVTVSS
polyreactivity (PSR sort gate): low polyreactivity

QVQLVESGGGLVQAGGSLRLSCAASGSTFVPNDMGWYRQAPGKEMELVAGISSGGGTYADSVKGRFTISRDNAKNTVYLQLNSLKPVDTAVYYCNALHAYYVLTPYDYWGQGTQVTVSS
polyreactivity (PSR sort gate): low polyreactivity

QVQLVESGGGLVQAGGSLRLSCAASGSTFVPYAMGWYRQAPGKEREFVAGITWSVGSTYYADSVKGRFTISRDNAKNTVYLQMNSLKPEDTAVYYCNAEIYAYFLWWYGYWGQGTQVTVSS
polyreactivity (PSR sort gate): low polyreactivity

QVQLVESGGGLVQAGGSLRLSCAASGSTFVQNAMGWYRQAPGKERELVAAISRTGGSTYYADSVKGRITFSRDNAKNTVYLQLNTLKPEDTAVYFCAKRPPHYSWPKIIEFGSWGQGTQVTVSS
polyreactivity (PSR sort gate): high polyreactivity

QVQLVESGGGLVQAGGSLRLSCAASGSTFVRNAMGWYRQAPGKERELVAAITWSTGTTYYADSVKGRFTISRDNAKNTVYLQMNSLKPEDTAVYYCAADIYTELFKHDYWGQGTQVTVSS
polyreactivity (PSR sort gate): low polyreactivity

QVQLVESGGGLVQAGGSLRLSCAASGSTFVRNDMGWYRQAPGKERELVAAINGDGRTYYADSVKGRFTISRDNAKNTVYLQLNSLKPEDTAVYYCAADGYLLYVQHPNGRRYDYWGQGTQVTVSS
polyreactivity (PSR sort gate): low polyreactivity

QVQLVESGGGLVQAGGSLRLSCAASGSTFVRNGMGWYRQAPGKERELVASISGRGGSTYYADSVKGRFTISRDNAKNTVYLQMNSLKPEDTAVYYCAVRYGFYSRYNYWGQGTQVTVSS
polyreactivity (PSR sort gate): high polyreactivity

QVQLVESGGGLVQAGGSLRLSCAASGSTFVRYAMGWYRPAPGKERELVAVISSSGGTTYYADSVKGRFTISRDNAKNTVYLQMNSLKPEDTAVYSCARRVRWWGPRRSDFDYWGQGTQVTVSS
polyreactivity (PSR sort gate): high polyreactivity

QVQLVESGGGLVQAGGSLRLSCAASGSTFVRYAMGWYRQAPGKDRELVARISSAGSTNYADSVKGRFTISRDNAKNTVYLQMNSLKPEDTAVYYCAATTKAGVSSGQGDSWGQGTQVTVSS
polyreactivity (PSR sort gate): low polyreactivity
